Measurements taken from US20120251547A1 (Amgen, published 2012).
Where a chain is given by its changes, count along the chain named.

T1: chimera B
T1 construct: human IL-17RA extracellular domain with mouse Domain B; column head 75-96; also called Construct B
T1 IL-17RA extracellular domain with FLAG-polyHis tag: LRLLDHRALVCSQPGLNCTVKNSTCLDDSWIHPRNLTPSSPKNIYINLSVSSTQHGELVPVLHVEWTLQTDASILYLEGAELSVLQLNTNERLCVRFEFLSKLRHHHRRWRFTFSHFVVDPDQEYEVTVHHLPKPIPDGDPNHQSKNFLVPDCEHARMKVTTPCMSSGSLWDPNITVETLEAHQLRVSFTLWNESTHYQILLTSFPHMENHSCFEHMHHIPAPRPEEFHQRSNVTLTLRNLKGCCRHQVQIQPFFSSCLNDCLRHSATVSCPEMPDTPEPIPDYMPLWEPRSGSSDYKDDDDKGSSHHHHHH

T2: chimera H
T2 construct: human IL-17RA extracellular domain with mouse Domains B and E; also called Construct H
T2 IL-17RA extracellular domain with FLAG-polyHis tag: T1 IL-17RA extracellular domain with FLAG-polyHis tag with E181D, A182T, H183Q, Q184H, S188D

B1: AMH21/AML21 (antibody, IgG2, V domains shown)
VH: EVQLVESGGGSVQPGGSLRLSCAASGFTFSSYSMNWVRQAPGKGLEWVSIISSRSSIIHYADSVKGRFTISRDNAKNSLYLQMNSLRDEDTAVYYCARPKVGGGMDVWGQGTTVTVSS
VL: DIQMTQSPSSLSASVGDRVTITCRASQGISNYLAWYQQKPGKFPELLIYAASTLQSGVPSRFSGSGSGTDFTLTISSLQPEDVATYYCQKYNRAPFTFGPGTKVDIK
notes: human mAb from IgG2 XenoMouse mice; also called AM-21; antibody Q
B2: AMH20/AML20 (antibody, IgG2, V domains shown)
VH: B1 VH with S11L, I50F, S53A, I57T, H59Y
VL: B1 VL
notes: human mAb from IgG2 XenoMouse mice; also called AM-20; antibody R
B3: AMH18/AML18 (antibody, IgG2, V domains shown)
VH: QVQLVQSGAEVKKPGASVKVSCKASGYSFTDYYMHWVRQAPGQGLEWMGWMHPNSGGTDLAQRFQGRVTMTRDTSISTAYMELSRLRSDDTAVYYCARGGYCSTLSCSFYWYFDLWGRGTLVTVSS
VL: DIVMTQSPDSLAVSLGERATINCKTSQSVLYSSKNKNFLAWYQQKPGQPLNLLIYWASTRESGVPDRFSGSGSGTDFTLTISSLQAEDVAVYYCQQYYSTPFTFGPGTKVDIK
notes: human mAb from IgG2 XenoMouse mice; also called AM-18; antibody G

Tests used:
[1] = molecular target: T3, huIL-17RA-FLAG-polyHis (human, UniProt Q96F46 33-320); assay: binning; IL-17RA held by bead mAb N
T3 construct: also called IL-17RA-FLAG-pHis; wild-type IL-17RA

[2] = molecular target: T3, huIL-17RA-FLAG-polyHis; assay: binning; IL-17RA held by bead mAb A
[3] = molecular target: T3, huIL-17RA-FLAG-polyHis; assay: binning; IL-17RA held by bead mAb J
[4] = molecular target: T3, huIL-17RA-FLAG-polyHis; assay: binning; IL-17RA held by bead mAb D
[5] = molecular target: T3, huIL-17RA-FLAG-polyHis; assay: binning; IL-17RA held by bead mAb P
[6] = molecular target: T3, huIL-17RA-FLAG-polyHis; assay: binning; IL-17RA held by bead mAb I
[7] = molecular target: T3, huIL-17RA-FLAG-polyHis; assay: binning; IL-17RA held by bead mAb M
[8] = molecular target: T3, huIL-17RA-FLAG-polyHis; assay: binning; IL-17RA held by bead mAb L
[9] = molecular target: T3, huIL-17RA-FLAG-polyHis; assay: binning; IL-17RA held by bead mAb F
[10] = molecular target: T4, chimera E; assay: Bio-Plex titration on His-captured chimera;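 note: binding of anti-IL-17RA antibodies (4-fold titration across about 5 logs, 1 h) to His-captured IL-17RA chimeras on multiplexed beads, MFI read as percent of maximal wild-type human IL-17RA signal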
T4 construct: human IL-17RA extracellular domain with mouse Domain E; also called Construct E

[11] = molecular target: T1, chimera B; assay: Bio-Plex titration on His-captured chimera;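 note: binding of anti-IL-17RA antibodies (4-fold titration across about 5 logs, 1 h) to His-captured IL-17RA chimeras on multiplexed beads, MFI read as percent of maximal wild-type human IL-17RA signal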
[12] = molecular target: T5, chimera A; assay: Bio-Plex titration on His-captured chimera;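 note: binding of anti-IL-17RA antibodies (4-fold titration across about 5 logs, 1 h) to His-captured IL-17RA chimeras on multiplexed beads, MFI read as percent of maximal wild-type human IL-17RA signal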
T5 construct: human IL-17RA extracellular domain with mouse Domain A; column head aa 38-51; also called Construct A

[13] = molecular target: T6, chimera C; assay: Bio-Plex titration on His-captured chimera;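 note: binding of anti-IL-17RA antibodies (4-fold titration across about 5 logs, 1 h) to His-captured IL-17RA chimeras on multiplexed beads, MFI read as percent of maximal wild-type human IL-17RA signal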
T6 construct: human IL-17RA extracellular domain with mouse Domain C; also called Construct C

[14] = molecular target: T7, chimera G; assay: Bio-Plex titration on His-captured chimera
T7 construct: human IL-17RA extracellular domain with mouse Domains A and E; also called Construct G

[15] = molecular target: T8, chimera I; assay: Bio-Plex titration on His-captured chimera
T8 construct: human IL-17RA extracellular domain with mouse Domains C and E; also called Construct I

[16] = molecular target: T9, chimera L; assay: Bio-Plex titration on His-captured chimera
T9 construct: human IL-17RA extracellular domain with mouse Domains B and F; B+F; also called Construct L

[17] = molecular target: T2, chimera H; assay: Bio-Plex titration on His-captured chimera
[18] = molecular target: T3, huIL-17RA-FLAG-polyHis; assay: binning; IL-17RA held by bead mAb Q
[19] = molecular target: T3, huIL-17RA-FLAG-polyHis; assay: binning; IL-17RA held by bead mAb B
[20] = molecular target: T3, huIL-17RA-FLAG-polyHis; assay: binning; IL-17RA held by bead mAb E
[21] = molecular target: T3, huIL-17RA-FLAG-polyHis; assay: binning; IL-17RA held by bead mAb R
[22] = molecular target: human IL-17RA (form used in the low resolution BIAcore not stated) (human, UniProt Q96F46 33-320, limits assumed); assay: low resolution BIAcore, subcloned hybridoma
[23] = molecular target: T3, huIL-17RA-FLAG-polyHis; assay: binning; IL-17RA held by bead mAb G
[24] = molecular target: T3, huIL-17RA-FLAG-polyHis; assay: binning; IL-17RA held by bead mAb O

Binder | normalized MFI [1] | normalized MFI [2] | normalized MFI [3] | normalized MFI [4] | normalized MFI [5] | normalized MFI [6] | normalized MFI [7] | normalized MFI [8] | normalized MFI [9] | EC50 [10] [nM] | EC50 [11] [nM] | EC50 [12] [nM] | EC50 [13] [nM] | EC50 [14] [nM] | EC50 [15] [nM] | EC50 [17] [nM] | normalized MFI [18] | normalized MFI [19] | normalized MFI [20] | normalized MFI [21] | further results
B1 | 39 | 9530 | 23 | 1380 | 2160 | 2.5 | 44.5 | -58 | 2200 | 0.026 | 0.017 | 0.018 | 0.03 | 0.025 | 0.032 | 0.025 | 100 | 1900 | 1170 | 34 | EC50 [16]: 0.025 nM; Kd [22]: 16.7 nM; normalized MFI [23]: 6280; normalized MFI [24]: 175
B2 | 24 | 6800 | 26 | 783 | 1410 | 58 | 24 | 15 | 1240 | 0.027 | 0.02 | 0.023 | 0.04 | 0.027 | 0.042 | 0.033 | 60 | 1060 | 666 | 25 | EC50 [16]: 0.027 nM; Kd [22]: 11.6 nM; normalized MFI [23]: 4020; normalized MFI [24]: 140
B3 | 3230 | -162 | 2900 | 344 | 4490 | 6890 | 2380 | 3590 | 304 | 0.067 | 0.063 | 0.052 | 0.052 | 0.052 | 0.059 | 0.088 | 7850 | 1300 | 260 | 5110 | binding result [16]: no binding; Kd [22]: 14.9 nM; normalized MFI [23]: 480; normalized MFI [24]: 5380
